For data set [1], the target named is T1, KlRad5 (Kluyveromyces lactis, UniProt Q6CJM4 163-1114).
T1 sequence: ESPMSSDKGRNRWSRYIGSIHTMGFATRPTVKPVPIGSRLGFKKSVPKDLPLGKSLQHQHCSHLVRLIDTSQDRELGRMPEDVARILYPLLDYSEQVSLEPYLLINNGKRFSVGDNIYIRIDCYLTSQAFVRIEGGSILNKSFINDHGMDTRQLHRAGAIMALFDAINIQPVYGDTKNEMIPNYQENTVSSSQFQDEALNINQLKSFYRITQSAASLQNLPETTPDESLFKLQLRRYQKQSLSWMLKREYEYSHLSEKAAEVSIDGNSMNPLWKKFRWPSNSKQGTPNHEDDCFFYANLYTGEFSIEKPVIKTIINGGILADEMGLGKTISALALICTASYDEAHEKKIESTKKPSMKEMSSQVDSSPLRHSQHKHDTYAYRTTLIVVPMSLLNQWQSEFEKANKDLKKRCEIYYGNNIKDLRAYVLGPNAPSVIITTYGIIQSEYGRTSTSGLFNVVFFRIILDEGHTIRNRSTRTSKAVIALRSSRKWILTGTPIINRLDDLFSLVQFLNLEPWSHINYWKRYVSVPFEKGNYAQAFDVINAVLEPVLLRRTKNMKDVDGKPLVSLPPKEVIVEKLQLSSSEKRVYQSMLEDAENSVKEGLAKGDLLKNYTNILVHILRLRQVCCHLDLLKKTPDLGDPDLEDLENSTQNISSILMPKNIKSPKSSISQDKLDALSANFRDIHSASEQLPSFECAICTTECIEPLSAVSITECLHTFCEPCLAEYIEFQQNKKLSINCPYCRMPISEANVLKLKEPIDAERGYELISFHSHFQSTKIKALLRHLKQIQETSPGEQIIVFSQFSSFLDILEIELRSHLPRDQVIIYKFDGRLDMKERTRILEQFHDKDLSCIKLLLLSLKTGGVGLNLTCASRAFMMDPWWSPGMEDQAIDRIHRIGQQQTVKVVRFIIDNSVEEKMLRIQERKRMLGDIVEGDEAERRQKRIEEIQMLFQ
Nature of the data set: fluorescence polarization; 70 mM NaCl; similar to 5'-FAM; FP: 20 mM Tris pH 7.5, 50 mM (dsDNA, KlHIRAN) or 70 mM (ssDNA) NaCl, 2 mM MgCl2, 1 nM DNA, room temp; EMSA: 20 mM Tris pH 7.5, 100 mM KCl, 0.5 mM DTT, 3% glycerol, 2 mM MgCl2, 250 ug/mL BSA, 4 C; pull-down: 20 mM Tris pH 7.5, 50 mM NaCl, 4 C. The conditions noted are these: protein: recombinant; tags: none; label: 3'-FAM.

For another data set, the target named is T2, His-KlRad5 (Kluyveromyces lactis, UniProt Q6CJM4 163-1114).
T2 sequence: T1 sequence
As to the kind of experiment: fluorescence polarization; FP: 20 mM Tris pH 7.5, 50 mM (dsDNA, KlHIRAN) or 70 mM (ssDNA) NaCl, 2 mM MgCl2, 1 nM DNA, room temp; EMSA: 20 mM Tris pH 7.5, 100 mM KCl, 0.5 mM DTT, 3% glycerol, 2 mM MgCl2, 250 ug/mL BSA, 4 C; pull-down: 20 mM Tris pH 7.5, 50 mM NaCl, 4 C. The note with it: protein: recombinant; tags: N-terminal His6; label: 5'-FAM. On the technique in general: Fluorescence polarisation rises when a labelled molecule tumbles more slowly, as on binding a larger partner.

For data set [2], the target named is T1, KlRad5. Nature of the data set: fluorescence polarization; 70 mM NaCl; FP: 20 mM Tris pH 7.5, 50 mM (dsDNA, KlHIRAN) or 70 mM (ssDNA) NaCl, 2 mM MgCl2, 1 nM DNA, room temp; EMSA: 20 mM Tris pH 7.5, 100 mM KCl, 0.5 mM DTT, 3% glycerol, 2 mM MgCl2, 250 ug/mL BSA, 4 C; pull-down: 20 mM Tris pH 7.5, 50 mM NaCl, 4 C. The note with it: protein: recombinant; tags: none; label: 5'-FAM.

The target in another data set is T3, ScHIRAN (Saccharomyces cerevisiae, UniProt P32849 171-375).
T3 sequence: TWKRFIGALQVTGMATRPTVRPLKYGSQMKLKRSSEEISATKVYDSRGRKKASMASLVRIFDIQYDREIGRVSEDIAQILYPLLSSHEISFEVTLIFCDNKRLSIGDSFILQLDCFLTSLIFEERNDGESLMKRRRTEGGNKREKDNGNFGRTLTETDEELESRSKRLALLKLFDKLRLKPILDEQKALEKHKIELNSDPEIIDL
Nature of the data set: EMSA; FP: 20 mM Tris pH 7.5, 50 mM (dsDNA, KlHIRAN) or 70 mM (ssDNA) NaCl, 2 mM MgCl2, 1 nM DNA, room temp; EMSA: 20 mM Tris pH 7.5, 100 mM KCl, 0.5 mM DTT, 3% glycerol, 2 mM MgCl2, 250 ug/mL BSA, 4 C; pull-down: 20 mM Tris pH 7.5, 50 mM NaCl, 4 C. The note with it: protein: recombinant; tags: intein-CBD cleaved off; label: 5'-FAM.

For a further data set, the target named is T4, KlHIRAN (Kluyveromyces lactis, UniProt Q6CJM4 174-341).
T4 sequence: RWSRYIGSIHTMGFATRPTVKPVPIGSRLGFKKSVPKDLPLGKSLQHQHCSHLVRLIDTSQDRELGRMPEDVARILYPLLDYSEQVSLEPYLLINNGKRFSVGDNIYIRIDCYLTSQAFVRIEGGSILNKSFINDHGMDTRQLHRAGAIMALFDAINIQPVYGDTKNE
The description is as above. The conditions noted are these: protein: recombinant; tags: intein-CBD cleaved off; label: 5'-FAM.

Another data set has as its target T5, HsHIRAN (Homo sapiens, UniProt Q14527 55-180).
T5 sequence: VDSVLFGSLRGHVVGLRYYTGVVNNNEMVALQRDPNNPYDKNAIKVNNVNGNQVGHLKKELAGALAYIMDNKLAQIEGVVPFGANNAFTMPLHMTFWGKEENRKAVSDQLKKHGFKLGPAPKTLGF
As to the kind of experiment: EMSA; strong preference for free 3'-OH; FP: 20 mM Tris pH 7.5, 50 mM (dsDNA, KlHIRAN) or 70 mM (ssDNA) NaCl, 2 mM MgCl2, 1 nM DNA, room temp; EMSA: 20 mM Tris pH 7.5, 100 mM KCl, 0.5 mM DTT, 3% glycerol, 2 mM MgCl2, 250 ug/mL BSA, 4 C; pull-down: 20 mM Tris pH 7.5, 50 mM NaCl, 4 C. The note with it: protein: recombinant; tags: His (pET28a), HA; label: 5'-FAM. In general terms: A gel shift assay detects complexes by their altered migration in electrophoresis.

B1: S1 ssDNA, 3'-FAM (ssDNA)
DNA: TTTTTTTCGTCTTCGGCAATTTTTT
Take B1: in the data set with KlRad5 [1], the binding result was “binds”.

B2: S1 ssDNA, 5'-FAM (ssDNA)
DNA: TTTTTTTCGTCTTCGGCAATTTTTT
Regarding B2, the binding result with His-KlRad5 and with KlRad5 [2] was “binds” throughout.

B3: dT10, 5'-FAM (ssDNA)
DNA: TTTTTTTTTT
As for B3, the binding result in the data set with ScHIRAN, in the data set with KlHIRAN and in the data set with HsHIRAN was “binds” each time.

The values above are taken from publication PMC7804152, “Structural basis for the multi-activity factor Rad5 in replication stress tolerance”.
